Experimental data from the supplement of paper PMC9170038.

Test system: K4 kissing-loop RNA reporter
Assay: apparent KD of K4 kissing-loop reporter; higher = weaker reporter binding
Details: Eterna round: R107
Description: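 RNA-MaP round R107: designed RNA switches with theophylline, tryptophan, arginine or FMN aptamers are transcribed on-chip within common flanks. They are titrated with a labelled K4 kissing-loop RNA reporter in RNA-MaP buffer (100 mM Tris pH 7.5, 80 mM KCl, 4 mM MgCl2), without ligand or with the indicated ligand. Median apparent KD per design.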

[1] = input ligand: theophylline 20 uM
[2] = input ligand: tryptophan 2.4 mM
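Note: bound reporter read as fluorescence of individual clusters on recovered sequencing chips by microscopy, with normalized cluster intensities fitted with a binding model.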

Sequence | apparent KD of K4 kissing-loop reporter (input ligand: FMN 200 uM) | apparent KD of K4 kissing-loop reporter (input ligand: arginine 13.2 mM) | apparent KD of K4 kissing-loop reporter (input ligand: none) | apparent KD of K4 kissing-loop reporter [1] | apparent KD of K4 kissing-loop reporter [2]
AGACUACUGAUAGGAUAUAACAUCCUAGUCGUAUACCGAAAGGUAUACGAUUUCCUUCUAGUGAUGUUAGAAGGGUCGGUAGUCA [Omei KL FMN B Exc B v11] | 106 nM | 82.4 nM | 89.1 nM | 81.1 nM | 89.1 nM
AGACUUCACCGAAGGAGCGACGUGGCCUAGUGAUGUUAGGUACGAGAGAAAUCUCGUAUACGUCAGGUAGGUCGCGGUGAAGUCA [Omei KL Arginine B SS C v8] | 868 nM | 643 nM | 997 nM | 721 nM | 830 nM
AGAGUUAUAUGAGGAUAUGGGAUAGUAACUGAGUGAGUUAUAGUGUAGUUUGUUUAGUGAUGUUAUUUAGAAGGCGUGAGUGAUG [wwwsemullin] | 162 nM | 121 nM | 147 nM | 182 nM | 107 nM
AGAGUUAUGCGAGGAUAUGCAGUUAGUACUCAAAGAGUACUAACGCAGAGUGAUGUUCUGUGAAAAGCAGAAGGUGCAUAACUCA [Omei KL FMN B SS B v6] | 155 nM | 650 nM | 693 nM | 597 nM | 669 nM
AGAUAGGGCUGAAGGAGCGUCGGAGAAGAGAAGAAGGAAUCCAGUGAUGUUGGAUAAAUCCGACAGGUAGGUCGCAGUUUUAUGA [hbob_SS_Arginine_B_2t138] | 108 nM | 126 nM | 99 nM | 109 nM | 115 nM
AGAUGGAAUAGAAGGAGCGGCGCCAGUGAUGUUGGAUGCCGCGGGUGAAUCAGAUCAUAGUGCCAGGUAGGUCGCUAUUUCAGCG [Anedin] | 113 nM | 101 nM | 106 nM | 116 nM | 112 nM
AGCCUUACAUCGGCCGCCACUUCCCUGGCAGUGAUGUUGCCGUAGACAAUCAUUCUACCCUGGAGAAGGACCGGGAUGCAGAAAC [theeternabot_sameState_KL_Trp_B_8] | 154 nM | 185 nM | 167 nM | 223 nM | 329 nM
AGCGUCUGAAGAGGAUAUGACCAGUGAUGUUGGUUACUACCUCAAAUUAGUGUCGCGCCAAAAUCGUCAGAAGGCUUCGGCGCGC [Ussoes] | 135 nM | 92 nM | 98.6 nM | 96.7 nM | 92.9 nM
AGCUCAGAGUGACUCGAUAAGAGUCACAAACGAGGACCGGUACGGCCGCCACUCGAAAUAAGGAGAGUGAUGUUCUCGCUGAGCA [FiskerMod 8 - Jieux - Same State Tryptophan A] | 454 nM | 81.5 nM | 124 nM | 35.1 nM | 345 nM
AGGACGGUUAUGGAUACCAGUCCGGAACUUGUCCAUGGAGUGAUGUUCCGUCCAGCUCCGGACCCUUGGCAGCCAGACUGCUGAA [theeternabot_sameState_KL_Theo_B_41] | 185 nM | 189 nM | 192 nM | 138 nM | 198 nM
AGGAUGUAGUGAUGUUAUAUAAAAGGUAAACGAGGACCGGUACGGCCGCCACUCGAAGCGGCUGCUAAGAGGGAAAGAAGAGGAA [ExTryptoA.E] | 496 nM | 464 nM | 570 nM | 684 nM | 371 nM
AGGCACGAGCAAGGAUAUCGAGUAGAGUGAUGUUCUGCCUGGGUUGGCUCGAAAGAGCCUUCUCAGCGAGAAGGUGCUCGUGCCU [#2 Same State - FMN A Attempt #21 (HarryS)] | 248 nM | 604 nM | 982 nM | 638 nM | 751 nM
AGGCACGAGCAAGGAUAUUGAGUAGAGUGAUGUUCUGCCUAAGUUGGCUCGAAAGAGCCUUCUUAGCGAGAAGGUGCUCGUGCCU [#2 Same State - FMN A Attempt #26 (HarryS)] | 297 nM | 534 nM | 666 nM | 812 nM | 763 nM
AGGGUUAAUUAGUCUUUUUUCACAUUAAGUCAGGAUAUCGUAUUUUCGAGAAGGGACACAUGCUAGUGAUGUUAGCUAUUUCCCA [#02 K4 FMN A Exclusion] | 77.3 nM | 115 nM | 90.6 nM | 122 nM | 86.2 nM
AGGUCACUACUACAGUGAUGUUGUGGAGAGCAGGAUAUGCAGAAAUGCAGAAGGGCUCGCUCUCAGUGACCGAAUGAAACAUUCA [Omei KL FMN A SS A v8] | 663 nM | 724 nM | 712 nM | 566 nM | 838 nM
AGGUCCGAGCCCGGAAGGGCUCGGACCUGUUAGGAUAUGACGUGAUUCAGAAGGGAUGGGUGGAGUGAUGUUCCACCCGAGAGGG [#2 Same State - FMN A Attempt #20 (HarryS)] | 105 nM | 89.3 nM | 91.2 nM | 102 nM | 109 nM
AGUACAAUGGCGGCCGCCACUCAACGCAGAUCAAAGAUCUGCAUUCACUCAGUGAUGUUGAGUGAGAGGACCGGGCCUUUGUACA [Omei KL Tryp B SS B v1] | 701 nM | 581 nM | 637 nM | 580 nM | 189 nM
AGUACGGACGCGGCCGCCACUCAGAAGAAGACGGUAGUGAUGUUACUGAUGGUGAGAACAAUAAAGAGGACCGGGUGUCGUGCAA [#06 K4 Tryptophan B Same State] | 324 nM | 464 nM | 523 nM | 370 nM | 304 nM
AGUAGAGCAUCAGAUACCAGACUGAACUGAUGGUAAGGAGUGAUGUUCCUUAAUCAGCUAGUCCCUUGGCAGCUGAUAAUAGUCA [Theo B SS t3] | 251 nM | 253 nM | 268 nM | 183 nM | 222 nM
AGUCCACUCUAAAGAGUGGACCUAAGGGAUACCAGUGAUGUUGGUCACCCUUGGCAGCCCGCUGUCAUCGAUAAAGAUGGCAGUA | 125 nM | 107 nM | 112 nM | 121 nM | 117 nM
AGUCCACUCUAAAGAGUGGACCUAAGGGAUACCAGUGAUGUUGGUCACCCUUGGCAGCCCUCUGUCAUCGAUAAAGAUGGCAGAA | 142 nM | 110 nM | 114 nM | 112 nM | 108 nM
AGUGAAGUUAGUGAUGUGUGAGUUUGGGAAGGAGCGCCGAGGAAGGCAGGUAGGUCGCCCAGUGAUGUUGGUGUAAGGAUGAGAG [whbob_Ex_Arginine_A_2t123] | 451 nM | 332 nM | 311 nM | 262 nM | 303 nM

Sequence | apparent KD of K4 kissing-loop reporter (input ligand: FMN 200 uM) | apparent KD of K4 kissing-loop reporter (input ligand: arginine 13.2 mM) | apparent KD of K4 kissing-loop reporter (input ligand: none) | apparent KD of K4 kissing-loop reporter [1] | apparent KD of K4 kissing-loop reporter [2]
AGUGAUAUAUGAGGAUAUGGGUUUGUUAAUGAGUUUGUUUUAGUGUUGUUUGGUUAGUGAUGUUAUUUAGAAGGCGUGAGUGAUG [vxxexmullin] | 130 nM | 80.5 nM | 82.4 nM | 127 nM | 72 nM
AGUGCACUGUCAGGAUAUAUACAGUGAUGUUGUGUAUGUCAGCAAGUCAAAGACUUGCUAUUCUGUGUAGAAGGGACUGUGUACA [Omei KL FMN B Exc A v1] | 607 nM | 203 nM | 230 nM | 207 nM | 221 nM
AGUGGACGUGUCUAGAGUGAUGUUCCGGAUACCAGACACGAAAGUGUCCCUUGGCAGCCGGAGUGAUGUUCUGGCGUUCACUAAA [Omei KL Theo A Exc B v6] | 647 nM | 296 nM | 549 nM | 459 nM | 440 nM
AGUGGACGUGUCUGGAGUGAUGUUCUGGAUACCAGACACGAAAGUGUCCCUUGGCAGCCGGAGUGAUGUUCCGGCGUUCACUAAA [Omei KL Theo A Exc B v5] | 462 nM | 239 nM | 402 nM | 396 nM | 307 nM
AGUGUGCAAAAGCACACUCAGCACAAGGACAAGGAUAUCUACUAAUAGAGAAGGUGUCCUUUCCUUAGUGAUGUUAAGGAGCUGA [Omei KL FMN A SS D v1] | 238 nM | 526 nM | 700 nM | 624 nM | 693 nM
AGUGUUGUAUGACGGUUUGUCACUUAGGAUCAGGAUAUAUAAACAAAUAGAAGGGAUGGCGGAGUGAUGUUCCGCCGGCCGCCAU [FMN A Exl V9] | 110 nM | 101 nM | 104 nM | 106 nM | 94.3 nM
AUAAUUAUGACGGCCGCCACUGAGAGUAGUGAUGUUACUCUUUUCCUUUAGUAAUAAUUUUUUAUCAGGACCGGGUUAUUUGAAU [JR_Nu_ExcTryptoB_Sub027] | 68.7 nM | 67.2 nM | 70.2 nM | 64.4 nM | 83.9 nM
AUAGGCAUAGCCCGAGUGAUGUUCGACGAUACCAGCCUCGAUAGAGGCCCUUGGCAGCGUAAAUGAUCAUGAAGCCAAGGAAUUA [whbob_Ex_Theo_A_th70] | 360 nM | 335 nM | 408 nM | 394 nM | 277 nM
AUAUAAGUCGGAGGAUAUCCAGUGAUGUUAUGUUGUGAUGUUUAGUGAUGUUAGGCAUCAGUGAAGGGAGAAGGCCGUAAGUGAU [APPLE] | 68.6 nM | 53.3 nM | 91.1 nM | 89.2 nM | 78.9 nM
AUAUCGGUUGAGAGUGAUGUUCCUUGUGUUCGAGGACCGGUACGGCCGCCACUCGGGUAGAAAAUAAAAGAUGUGUUUGAUUUUU [BDazzled - #14 SS Tryptophan A] | 243 nM | 91.5 nM | 203 nM | 402 nM | 221 nM
AUAUGCUUAGCGGCCGCCACUCCAAUUGGCCGAAAGGCCUGAUACCGAGUGAUGUUCGGUUGGAGGAGGACCGGGCUAGGCGUAU [#2 Exclusion - Tryptophan B Attempt #1 (HarryS)] | 168 nM | 139 nM | 169 nM | 149 nM | 141 nM
AUCCGGAGUGCGGCCGCCACUAUCGGAUAGAGUGAUGUUCUAUCCGGCCUUAAAGGCGCGAACGAUAGGACCGGGCACUCUAAAU [Quatinti] | 121 nM | 124 nM | 136 nM | 128 nM | 122 nM
AUGCUUCAGUAAGGAUAUGGAGGCAGAGUGAAGAUUGUCGUGUAACCGAGUUAAGUGAUGUUUGAUCCAGAAGGUACAUGCGUGU [theeternabot_exclusion_KL_FMN_B_15] | 926 nM | 561 nM | 885 nM | 379 nM | 605 nM
AUGUAUGAAUUAGGAUAUCGUGAGCUUUGCAUAUAUAUGAUAAAUGGAUAUGUCGUAGUGAUGUUACGAGAAGGAGUGUGGAGUA [KL-XFMN-B3] | 52.4 nM | 55.7 nM | 43.9 nM | 65.8 nM | 37.4 nM
AUGUCGUUAUAGUGAGUGAUGUUCACUGUGCGAGGACCGGUACGGCCGCCACUCGAGAGUGGUGGACACUGAGUCACUCUGACAC [Tryp A Ex t2] | 124 nM | 123 nM | 130 nM | 111 nM | 283 nM
AUGUCUAAUACGGCCGCCACUCGAGCAGUGAUGUUGCUCAGUAAUGGUCAUCGUCGUACAUGCCCGAGGACCGGGUAUUGAUUUG [Remain] | 147 nM | 122 nM | 140 nM | 145 nM | 175 nM
AUUAAGAUAUGAGUGAUGUUUAUGUCCGAAGGAGCGUGCGAAAGUACAGGUAGGUCGCGGAUGUGAGUGAUGUUUAUGUAAGCGU [KL-XArg-A15 #analogue] | 109 nM | 33.8 nM | 97.1 nM | 65 nM | 83.4 nM
AUUAAUUUCAGAGGAUAUCGUAAUUUUAUUUAAUUUAUUCAUUUGUGCAGUGAUGUUGCUAAUAUUCGAGAAGGCUGAUUUAUAA [whbob_Ex_FMNB__2th223] | 142 nM | 159 nM | 70.8 nM | 171 nM | 65 nM
AUUAAUUUCAGAGGAUAUGCUUUAUUAUUAUUUUUAAAUAAUAUAAGCAGUGAUGUUGCUUUUUAUGCAGAAGGCUGAUUUAUAA [JR_SSFMNB_Sub016] | 137 nM | 397 nM | 383 nM | 384 nM | 360 nM
AUUAUAUAGGCGGCCGCCACUAGUGAUGUUAGUGACUAUAUGAAAACAUAUAGAAUAAAAUAAUAUAGGACCGGGCCAUAAUAUU [AstrosExTryB#4] | 498 nM | 392 nM | 423 nM | 425 nM | 471 nM
AUUAUAUAGGCGGCCGCCACUAGUGAUGUUAGUGACUUUAUGAAAACAUAAAGAAUAAAAUAAUAUAGGACCGGGCCAUAAUAUU [AstrosExTryB#5] | 475 nM | 369 nM | 450 nM | 427 nM | 432 nM
